These results are taken from a protein production outcome set (Wang et al. 2014).
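Note: failed if final PepcDB status was selected cloned or expressed and not failed if soluble or beyond.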

The series is described as follows: label from the status in PepcDB records.
On to “MKIRTIARASLLSAAIALAVTGCNSEPDMSQEDIQYISHVDQARFFQRQGELKASTIEARSAIDLQPNRTAPYFVIIHNLLTAGDAANAERQLDKLLENTNIEELGQSERNQAALIRAEARILQGKHQEALESLDQISSPSPDQQLQADNLKGRAWLTSGDFDKAEEAYQSAFDKHSNNVVAMVGLSRVATAKGDFDTAKERLEKAIEIDAEHEDVWLWRAQFAHAQQQWAEAEQAYIRALETIGQFDVMTFRKYQTISALITVLREQGKSAEAFVYEEILAKSGPGTIKSNLEAAASAYNDGDLNTAARYLQEVLNQVPNHQQSALMLGVIRYRQGRPEEAEKLLAPLADMENADEVRKLLAATRISMRDPAGAKSLLEDLEGSDADPQTLALVGIASLASGDDQSGRQLLEKSLELAPDNHNLRLRYAAYLTQTRDFANAIKQARQIPSDATEALQATILTSQAQALSGNSQTATDTLDTWLKANPDSMAALIARGNLASSLNNTQQAASYFERAHKQHPEEAAPLVALGNLAREQQNTEQAIAWYRQAVETNPNNLPAIQALAGVMKRDQLTGLMQEISSKHPEANGPRLILLESALINNDTLQADELTARLMEREREDQPSPAEPLVAAVYEGIATQMAQRENSERALEILSRGRTLFPENEAIALKVAAIEFSNGNATAARSALQDAKQHHPDSPAPYQVEASYYENQGEHQQAAELYQLALAKRQTAELAIAHARALSNAGRSQNSIEALQEANKQFPNNSSILLTLALQTQQAGQTDAAIEHYQQVLQLTPDNALALNNLAWLYYEAGNSEAASLAKRAYELVPENAAIADTYGWILFEAGEHEQSLAVLERAHSLAPDSQEIAMHLAEAYRATGRTDAAQQIMDKFSTGNNG”, for which the protein production entry is recorded as “failed”.
The same measure for “MKISTKDLVLCALFAAISCVLAQISIQLPFSPVPFTMQVMAVYLAGIILGAKKGFISQLVYVVLGAIGAPVFANFTGGVGAILGPAGGFIIAFPFMALIVGCVADKCRTKAYIIISMVLASVVCYVFGALWLVLVTKISFALAIKTAVLPFILFDMLKIIIVSIIGINIRSRIISGGLA”: “failed”; for “MKKAGILGLIITIIVLVPVGLGFNWYHSNYGTKTYYTQITTKGERKTGKDDSGKPYVYYHYSQPGYSDNGVKKELTFDSVLPRSLKMHAYLKVGYNDKRQQVINWEKVNQKDIPQAALNRIQKLEHHHHHH”: “not failed”; for “MKKDVLIFVKGTQEYPINSLENSIEFFTEGTFYKKGESFYVTYKESELTGLEGTTTTFKIQPNHITLIRYGDVTSTLIFEPGKRHISTYITEEGVIMIGVYTKKMKVDLTENGGEVFVEYAIDLDSHMMSENDFLLKIKEAGVKNLEHHHHHH”: “not failed”.
The same measure for “MKKEAESLIEKEHGTNPKISRYWIQRYDLFSKYDQGIEMDEEGWYSVTPEEIAIKQAERCRGKVVIDCFSGVGAIDIDPMKIALAMNNAKVYGVANRIDFVTGDFMQLAPSLKGDVLFLSPPWGGPTYSKVESYKLDMLLPRDGGVERVDSLTHESHNMTRSMKLKKRSRLKKEVKSTIEKDNGRRHKITKYWIQRYDLFSRYDQGIEMDEEGWYSVTPEEIAIKQAQRYRGKVVIDCFSGVGGNTIQFAKVCSSVVAIDIDPVKVELAMNNAMVYGVANRVDFVIGDFIQLAPSLKGDVVFLSPPWGGPMYRDFESYNLDMLQPRDGYSLFQIAQSITPNIIMFLPRNVDLAQVEELAWLSSPPLNLEIEENFVGGRMKAVTAYFSCNAV”: “not failed”; for “MKKFFIIGTDTEVGKTYISTKLIEVCEHQNIKSLCLKPVASGQSQFSELCEDVESILNAYKHKFTAAEINLISFNQAVAPHIIAAKTKVDISIENLKQFIEDKYNQDLDILFIEGAGGLLTPYSDHTTQLDLIKALQIPVLLVSAIKVGCINHTLLTINELNRHNIKLAGWIANCNDSNIKYIDEQINTIEELSGYKCSAKISRNADYLDFIDLSKILISPEENE”: “not failed”.
Regarding “MKKFLFDLFPLILFFVAYRYADIYAATAVAITASIAQILWLRLTGKAIEGMHWINLSVIVIFGGATLWLHSDVFIKWKPTVLYWLFGGALLGARYLFGRNLVRRLLGKQIALPDPVWERLNLSWALFFVAAGAVNLYVAFSGHFTESQWVNFKVFGLMGLLVAFVIAQSLWLGKHLQASDTPDQDRNED”, the protein production entry was “not failed”.
Turning to “MKKFLFILSLFCVLSYAYELKLNANITALKLDKQNLYIGTDKGEILQYNIKDKSLKELLSLPKIKNYYGDDFAKIYNIDIFKHTLLILSEGDFGAKNLSFYKENLQIKKLEENSIIKAFFINENTYLLISIGSEIELIDKSLKNIKKFNFSHSSLNDAVLNEDKSRLIAGFESGEVELFDLKNWKMLKNYDKMHKDNIYQVDFKNNVILSCGTDRRIGVVKNEEQNFLQKDFLIYTCALSPSGEFAVYSDNEAGVSEVFSTSDFKPVKTFNNENLMSEFIIFLNNKDFIVSGFGDSIMFRSIDE”, the protein production entry is given as “failed”.
The same measure for “MKKFLSFISFATIVSLVLSVFAKPYTEILRFKTTQQIAPRTYYEKYELLTDEGFVDINCIKLDLIDGGFDFDVLKSKVANTGDFVYNMVSSQIDKNPIAAINANFFYTNTKTDYNKIWPIGISVSGGKILSSPNNKQNTFPAFVYTTSNEILFDYINGLLYKLVNLDSGYEFKIAHVNKFTGDLTYPILFTGDYVQKTIGNKYKGIVELIIKDGIIKDIREEKQTVALDKNEYLLVATGNYAKNLKANFKVGDKVSLKIDLSIPLEKIKAAASGNTFLLKDGKIPSFTHEIAGRHPRSAIGIDKTGRYLYLVAVDGRNGKSIGLSQGELASFLQSIDVWTAINLDGGYSTQLIAKDNDGKFKAFYNIGETRKVFDSIAAFYKYRDDKIATFYIDCPDRVFAGEEYPIKVYAKDRFYNTITYDAVYLKVYQDAYEIDIKDGTFIPYKDGVVTISCVYEDVYQKAFAQKKISVYKPEILTTNKKQLYLLPGESARLRFYIKDKLGHFKEIDPRKVQAEKNPAFEFKDGSFIAKSNFRGFVTFSYKDLKCSIPVGIGETLQLLRSFDYLALSWPKGVSMFLSSKNKTQGKYSNKVYFSVSSTKGKSFKLNFKTPVDLTNINKISFDLCAKNVKVYLGFKMPNGTQKEVEIPQSKSDNFKSYSLNVESYKTLDYILLIPQKTQGYIWIDNLKGNVVNLPPVEAINQYVAKFDSKLAKSSVILLTKSFESLPSDTKKKVESNLGSYLKCYNLEKGNPPYEKNEKFNIVFLRTKSGSILDFSFYQWIRIKNLSAEKKPLIVVLDIPFESLKQNEKDILIRLLKSRKAPSMIICTTSDYTRVERYDTLYIGYASSNDLLAKSSTKSVNLACDVEKGYIYLARGY”: “failed”; for “MKKIAVFADVQNLYYTVRQAYGCHFNYAALWADISKRGEIVHAFAYAIDRGDSKQQQFQQILRNLGFTVRLKPYIQRSDGSAKGEWDVGITIDIMDFAPQVDEVVLASGDGDFDMLLDRVISKHGVEAVAYGVPGLTANSLIRAASRYVPIEGALL”: “not failed”.
For “MKKIEIFDPAMCCPTGLCGTNINPELMRIAVVIESLKKQGIIVTRHNLRDEPQVYVSNKTVNDFLQKHGADALPITLVDGEIAVSQTYPTTKQMSEWTGVNLD” the value was “not failed”.
Consider “MKKIFYISLGFISLGIGIAGIVLPVVPTTPLVLLSAFCFSRSSEKFDIWLRQTKVYKYYAADFVESRSIAPARKKSMIWQIYILMGISIYFAPLMWLKLGLLIGTIVGTYVLFYVVPDKIDE”, for which the protein production result is “failed”.
The same measure for “MKKIGIIGAGGIARAHATALSTIKNAELVGVYDINQQNAESFVKTFGGKSFENVDELIDASEGLIVASPNFCHKEHALQALGKHKHVLCEKPMAISLEEASIMKDTAERLSVRASMGFNYRYLSYVNILKSLIINNELGNILSIKVHFKKNSALRRKKFTWRDDANSKKTSGSLGDLGIHLIDMVWYLFESDFITESVRAKMNTNVKTKEDKQVLVDDYAEIYGQLRNKVFVNIITSKCSVPEDCGFSIEVVGHKKEFKYHTGNPHVYKLIDGLNVVDCPVPQSLLNDPPNEFYGWADSFRSELINWIASTQNDWVEIPSFSDGFRSQEVLEMFFEKDS”: “failed”; for “MKKINSAVLSIASNSMLIIFKLTAGITMNSISVLSEGVHSSIDLIASLIAFFSIKKSSLKEDDDHPFGHGKYENVSGFVEAILIMFAAIMIIYEAFNKLVSNSHVKNIDSGIYIMLISSAVNLFISIILLKSSKDTNSIALEADGMHLFTDFFTSLGVFLGLVLLKLTNIKIIDSITAFLVAILIIKTAVDLIKKSLRDLVDSSLDKDDINKIVKIVKKYPNIKEYHKLRTRRCGNTREIDIHIQIVGTDSLKETHDICSSIEDEIRRVFPDSCTVIHAEPYIEKFHKKSLT”: “failed”; for “MKKITIISGHPNHESSISNKAILEYLESNVMESQLNIRKLEDLNTHFEFNVIQEQEALLQADTIIFQFPLFWYSFPALMKKWIDDVICYGFAFGGEKGAQLKDKQFIFSFTIGGQESAYGNEKEIALTIDELLKPLKQMLRYCQVKDINYVYSHNMLYIPDMYGSIEDINVRSECHAIKLLSMVN”: “failed”.
For “MKKKKYLKWWIAAVSAVFIVGAGIFVYTQYKAAQTSGDVATKDGTSASASDITWNGKTYSYNEHLSNFLFLGIDTKEKAETKTGQADAGQADALYLLSWNRLEGDITVISIPRDTMTQIETFGPGGKSLGKSKDHISLSYAYGDGGYESCELAENAVSELLYGLPIDGYCALNMDGLPVLTDSVGGVTVTVPNDSLAEVDPGYAKGAVVTLKGEDTEQFVRYRNTEISQSAIARMERQQEYIRAFGEALKKASADKALVTDLYKAIEPYMVTNMGKSRFVDLTESVSEGKKVNRWTIPGEGIQGKEYDEYVVDDDALYEKTVETFYVEKK”, the protein production entry was “failed”.
In the case of “MKKKKYVNSGTVTLLSFAVESECTFLDYIKGGTQINFTVAIDFTASNGNPSQSTSLHYMSPYQLNAYALALTAVGEIIQHYDSDKMFPALGFGAKLPPDGRVSHEFPLNGNQENPSCCGIDGILEAYHRSLRTVQLYGPTNFAPVVTHVARNAAAVQDGSQYSVLLIITDGVISDMAQTKEAIVNAAKLPMSIIIVGVGQAEFDAMVELDGDDVRISSRGKLAERDIVQFVPFRDYVDRTGNHVLSMARLARDVLAEIPDQLVSYMKAQGIRPRPPPAAPTHSPSQSPARTPPASPLHTHI”, the protein production result is recorded as “failed”.
The same measure for “MKKKNKLLFILGIIGPGLITVNAGNDAGGIATYATVGASYGYKMLWGLLLITFSLAIIQEMNARMAVVTGKGLSDLIRENYGVKWSLFAMCILFIANFGVCVGDFAGIAASLELFGISKYITVPIMAFLVWFVITKGSYEKTEKVFLAFTFVFFTYIITCIKVHPNWNVVMKATITPSLSFTKGYVLTLIGMIGTTITPYMQFYLQSSVVDKGLSVKEYKYEKIDVYLGAIWGDLVSFFIIVCTAVTLYKAGIKIDSAEQAAMALKPLAGNYATILFAAGLFGASVLATMVIPLSTTYAICEAFGFESGLDNSFSEAKTFYGIFTFMILFSAALVLVPKLSLVGIMLITQQIAGILSPVILIFMVLLINNKDIMGKYINNKLQNVIVYLTVAFIIILSLILFVSPIIDKLM”: “failed”.
For “MKKKYFLCVFAVILFFTGFLFGNSPVNAAETDTSNVTYNYIDISTLTETQKNSIIKGNPNETLTNDYENYSFVYQKNTSEPTTNTDNTSDNNKNQNGTLLKAGDVGPNSYLIILGFILFGSGIGLLTLKKRHARQLLVFLVVLGGSSLLVGSIVQATENSNLKTQESQTVAKGTKETKQPESMEGYTYVGYIHTSKNNTPPVVEKGTVTVNYQDEQGNSLATSETLEGDIDQPYQTATKNIEGYQLKEVNGNTTGTFTEKAQVVTYVYQKVPVATVTVKYLDQDGNKIHDPQTISGNIGEPYDASTDKYKLRIEGYTLDTTKLPNNANGTFTNQAIEVTYIYTKEAQDVKITIKFVDSNGDPFVLTDLTTYKNGDLVPIYPNLDQYHMRLNYNQEIYNQGEAVPDIVIPAKEGETYSLPERMTFNILDDQGKQIPYVISQNADLSSTGIERWENYLSIPTNREGTLTSEDVVVTYQILVYGVMIPEP” the value was “failed”.
